± gives the uncertainty stated by the source.
Assay: self-splicing fitness, log relative to wild type (ln ratio); higher = more splicing; Tetrahymena group I intron in knt gene, E. coli kanamycin selection, DiMSum; sequences stand for … in CUCUCU…GGAGGGAAAAGUUAUCAGGCAUGCACCUGGUAGCUAGUCUUUAAACCAAUAGAUUGCAUCGGUUUAAAAGGCAAGACCGUCAAAUUGCGGGAAAGGGGUCAACAGCCGUUCAGUACCAAGUCUCAGGGGAAACUUUGAGAUGGCCUUGCAAAGGGUAUGGUAAUAAGCUGACGGACAUGGUCCUAACCACGCAGCCAAGUCCUAAGUCAACAGAUCUUCUGUUGAUAUGGAUGCAGUUCACAGACUAAAUGUCGGUCGGGGAAGAUGUAUUCUUCUCAUAAGAUAUAGUCGGACCUCUCCUUAAUGGGAGCUAGCGGAUGAAGUGAUGCAACACUGGAGCCGCUGGGAACUAAUUUGUAUGCGAAAGUAUAUUGAUUAGUUUUGGAGUACUCGUGGUCG
How it was run: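 Library with all eight P1ex-region intron nucleotides randomised, intron inside the knt kanamycin-resistance gene on pET-22b(+), in E. coli BL21(DE3). Cells grew overnight at 37°C or 30°C on LB agar with or without 25 μg/mL kanamycin (plus 100 μg/mL carbenicillin, 50 μM IPTG, 0.2% rhamnose), in six replicate transformations. Pooled colonies were amplicon-sequenced on Illumina HiSeq 2500. DiMSum fitness is the error-weighted combination of wild-type-normalised replicate fold changes, kanamycin versus none.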

AUUAAGCAAUAUUACGGUCA
self-splicing fitness (ln) (30 °C): -1.4 ± 0.14
self-splicing fitness (ln) (37 °C): -0.528 ± 0.14

UCGAAGCAAUAUUACGCUCU
self-splicing fitness (ln) (37 °C): -1.36 ± 0.34

CCCAAGCAAUAUUACGGUAG
self-splicing fitness (ln) (30 °C): -2.45 ± 0.086
self-splicing fitness (ln) (37 °C): -1.77 ± 0.087

GUAGAGCAAUAUUACGUCAU
self-splicing fitness (ln) (30 °C): -1.65 ± 0.1
self-splicing fitness (ln) (37 °C): -1.36 ± 0.11

AGAUAGCAAUAUUACGGCCC
self-splicing fitness (ln) (30 °C): -0.127 ± 0.19
self-splicing fitness (ln) (37 °C): -0.606 ± 0.23

CUGAAGCAAUAUUACGCGUU
self-splicing fitness (ln) (30 °C): -3.36 ± 0.18
self-splicing fitness (ln) (37 °C): -2.86 ± 0.24

GCGGAGCAAUAUUACGUGAG
self-splicing fitness (ln) (30 °C): -2.51 ± 0.12
self-splicing fitness (ln) (37 °C): -2.01 ± 0.15

UCAGAGCAAUAUUACGGCCA
self-splicing fitness (ln) (30 °C): -2.1 ± 0.27
self-splicing fitness (ln) (37 °C): -2.17 ± 0.32

UGGAAGCAAUAUUACGCUAC
self-splicing fitness (ln) (30 °C): -4.5 ± 0.34
self-splicing fitness (ln) (37 °C): -2.24 ± 0.21

CUGCAGCAAUAUUACGGGCC
self-splicing fitness (ln) (37 °C): -1.2 ± 0.5

UGGGAGCAAUAUUACGAGAU
self-splicing fitness (ln) (30 °C): -1.91 ± 0.27
self-splicing fitness (ln) (37 °C): -2.04 ± 0.47

ACUGAGCAAUAUUACGAAAG
self-splicing fitness (ln) (30 °C): -2.67 ± 0.15
self-splicing fitness (ln) (37 °C): -1.73 ± 0.18

CGUGAGCAAUAUUACGUGGA
self-splicing fitness (ln) (30 °C): -3.06 ± 0.15
self-splicing fitness (ln) (37 °C): -2.11 ± 0.14

AAUUAGCAAUAUUACGCCGU
self-splicing fitness (ln) (30 °C): -0.928 ± 0.23
self-splicing fitness (ln) (37 °C): -0.523 ± 0.26

UUUCAGCAAUAUUACGGUUC
self-splicing fitness (ln) (30 °C): -1.67 ± 0.17
self-splicing fitness (ln) (37 °C): -1.82 ± 0.27

AUUCAGCAAUAUUACGGCGG
self-splicing fitness (ln) (30 °C): -1.77 ± 0.1
self-splicing fitness (ln) (37 °C): -1.77 ± 0.11

CCUAAGCAAUAUUACGUUGA
self-splicing fitness (ln) (30 °C): -3.74 ± 0.25
self-splicing fitness (ln) (37 °C): -1.94 ± 0.17

CAAUAGCAAUAUUACGGGUG
self-splicing fitness (ln) (30 °C): -0.693 ± 0.068
self-splicing fitness (ln) (37 °C): 0.0252 ± 0.091

UUAGAGCAAUAUUACGGAAU
self-splicing fitness (ln) (30 °C): -3.79 ± 0.29
self-splicing fitness (ln) (37 °C): -2.81 ± 0.25

GAUUAGCAAUAUUACGGGAG
self-splicing fitness (ln) (30 °C): -2.81 ± 0.24
self-splicing fitness (ln) (37 °C): -2.8 ± 0.38

CAGGAGCAAUAUUACGGUCC
self-splicing fitness (ln) (30 °C): -2.86 ± 0.24
self-splicing fitness (ln) (37 °C): -2.86 ± 0.38

UGGAAGCAAUAUUACGUCAC
self-splicing fitness (ln) (37 °C): -1.54 ± 0.24

AUGGAGCAAUAUUACGCUGA
self-splicing fitness (ln) (30 °C): -3.48 ± 0.24
self-splicing fitness (ln) (37 °C): -3.11 ± 0.35

ACGAAGCAAUAUUACGCUAG
self-splicing fitness (ln) (30 °C): -1.5 ± 0.084
self-splicing fitness (ln) (37 °C): -0.372 ± 0.11

UAAGAGCAAUAUUACGGAGC
self-splicing fitness (ln) (30 °C): -3.44 ± 0.4

GACUAGCAAUAUUACGCGCU
self-splicing fitness (ln) (30 °C): -0.916 ± 0.095
self-splicing fitness (ln) (37 °C): -0.878 ± 0.12

GACAAGCAAUAUUACGGUAU
self-splicing fitness (ln) (30 °C): -1.29 ± 0.073
self-splicing fitness (ln) (37 °C): -1.17 ± 0.087

CGUUAGCAAUAUUACGACAU
self-splicing fitness (ln) (30 °C): -1.529 ± 0.015
self-splicing fitness (ln) (37 °C): -0.592 ± 0.033

UUAAAGCAAUAUUACGCUAC
self-splicing fitness (ln) (30 °C): -3.55 ± 0.26
self-splicing fitness (ln) (37 °C): -1.91 ± 0.2

UAACAGCAAUAUUACGAUUU
self-splicing fitness (ln) (30 °C): -1.47 ± 0.056
self-splicing fitness (ln) (37 °C): -0.218 ± 0.065

AAUGAGCAAUAUUACGGGGA
self-splicing fitness (ln) (30 °C): -2.54 ± 0.17
self-splicing fitness (ln) (37 °C): -2.22 ± 0.25

CUCUAGCAAUAUUACGUUGG
self-splicing fitness (ln) (30 °C): -3.9 ± 0.22
self-splicing fitness (ln) (37 °C): -2.92 ± 0.23

ACUCAGCAAUAUUACGCUCA
self-splicing fitness (ln) (30 °C): -0.566 ± 0.096
self-splicing fitness (ln) (37 °C): 0.105 ± 0.14

GUCCAGCAAUAUUACGGACU
self-splicing fitness (ln) (30 °C): -3.74 ± 0.29
self-splicing fitness (ln) (37 °C): -3.05 ± 0.4

ACGGAGCAAUAUUACGUGGA
self-splicing fitness (ln) (30 °C): -3.74 ± 0.37
self-splicing fitness (ln) (37 °C): -2.26 ± 0.24

UAAGAGCAAUAUUACGCUGA
self-splicing fitness (ln) (37 °C): -1.15 ± 0.29

UGGUAGCAAUAUUACGCAAA
self-splicing fitness (ln) (30 °C): -2.06 ± 0.29
self-splicing fitness (ln) (37 °C): -1.59 ± 0.17

UGUAAGCAAUAUUACGUCGC
self-splicing fitness (ln) (30 °C): -3.46 ± 0.33
self-splicing fitness (ln) (37 °C): -1.65 ± 0.2

CCCGAGCAAUAUUACGUCUU
self-splicing fitness (ln) (30 °C): -3.38 ± 0.18
self-splicing fitness (ln) (37 °C): -2.16 ± 0.19

CCACAGCAAUAUUACGUAGG
self-splicing fitness (ln) (30 °C): -2.62 ± 0.093
self-splicing fitness (ln) (37 °C): -2.18 ± 0.14

UCGUAGCAAUAUUACGAAAU
self-splicing fitness (ln) (30 °C): -3.8 ± 0.33
self-splicing fitness (ln) (37 °C): -1.65 ± 0.26

UAUAAGCAAUAUUACGAGUA
self-splicing fitness (ln) (30 °C): -0.776 ± 0.085
self-splicing fitness (ln) (37 °C): -0.245 ± 0.081

CCGUAGCAAUAUUACGUUUG
self-splicing fitness (ln) (30 °C): -1 ± 0.081
self-splicing fitness (ln) (37 °C): -0.134 ± 0.096

Reference: the supplement of paper PMC7877785
